Results as given in patent US9328334B2, “Luciferase derived from lucidina accensa” (OLYMPUS CORPORATION, priority 2011, dated 2016).
Entries after “also recorded” stand apart in the source; their conditions may differ.

Tests used:
[1] = Measurement of light emission spectra of purified luciferase under various pH environments; type: biochemical; conditions: light emission spectra at various pH
Protocol: With use of LumiFlSpectroCapture (manufactured by ATTO Corporation) as an apparatus for measurement, to a solution of 0.1 M citric acid/0.1 M Na2HPO4 buffer (pH 5.5 to 8.0) containing 1 mM of D-luciferin, 2 mM of ATP and 4 mM of MgCl2 the purified enzyme was added at a final concentration of 1 μg/mL, and after 15 seconds of addition of the enzyme luminescence spectra was measured. The measurement results were illustrated in FIG. 1.
After that, each of thus-prepared genes (SEQ ID NOs: 38 and 39) was introduced into pRSET-B vector according to the same method as the Example 2. This vector was transformed to E. coli JM109 (DE3) strain to express the mutant luciferase. Subsequently, the mutant luciferase was purified from E. coli. In addition, under various pH environments, the light emission spectrum was measured according to the same method as the Example 2 from a light emitting reaction catalyzed by the mutant luciferase.

HeLa cells = experiment: Luminescence intensity of luciferase expressed in HeLa cells, comparison with L. biplagiata luciferase (Example 5); type: cell-based; conditions: 37° C.
Source text: The luminescence intensity from the light emitting reaction using the wild type luciferase derived from L. accensa (SEQ ID NO: 1) was compared to the luminescence intensity from the light emitting reaction using the luciferase derived from L. biplagiata having the literature sequence (SEQ ID NO: 30) or the luciferase derived from L. biplagiata having the cloned sequence (SEQ ID NO: 31). Further, based on the difference between the literature sequence and the cloned sequence, the amino acid residue at position 249 of the amino acid sequence of the wild type luciferase, i.e., methionine, was changed to lysine to prepare the mutant luciferase (M249K), which was then used for the intensity measurement.
With regard to the four types of the luciferase, a nucleic acid containing a gene optimized for mammalian cell expression was given with a Kozak sequence, and then inserted between SgfI and PmeI sites within the multicloning site of pF9A CMV hRLuc neo Flexi vector (manufactured by Promega). Further, since the pF9A vector contains the luciferase gene derived from Renilla reniformis as an internal control in the vector sequence, it is possible to obtain the luminescence intensity from the luminescent gene inserted to the multicloning site as a ratio compared to the luminescence intensity emitted by the Renilla luciferase.
Four types of luciferase plasmids obtained in such a manner described above were each subjected to gene transfection to HeLa cells inoculated in a 48-well plate by a lipofection method, and 24 hours later, the cells were washed with PBS. To each well of a 48-well plate, 500 μL of 2 mM D-luciferin/CO2 Independent Medium (manufactured by Invitrogen) was added and the luminescence intensity was measured for 90 min by using a Luminescensor (manufactured by ATTO Corporation) under the condition including 37° C. and 1 sec per each well. The luminescence intensity which is obtained at the time point of 90 min after starting the measurement was taken as the luminescence intensity of each luciferase. […] Subsequently, 500 μL of 10 μM coelenterazine/CO2 Independent Medium was added to each well and the luminescence intensity was measured for 30 min by using a Luminescensor under the condition including 37° C. and 1 sec per each well. The luminescence intensity obtained at five minutes after the addition of coelenterazine was taken as luminescence intensity of the Renilla luciferase, which is an internal control. Each of the luminescence intensities from the luciferases was divided by the luminescence intensity of the Renilla luciferase, yielding the luminescence intensity of each luciferase. The measurements were carried out multiple times for each luciferase, and the luminescence intensity was obtained as a mean value.

HeLa cell = experiment: Luminescence intensity of luciferase expressed in HeLa cell, comparison with P. pyralis luciferase (Example 3); type: cell-based; conditions: 2 mM D-luciferin, 25° C., 90 min after starting measurement
Protocol: Each of the wild type luciferase derived from L. accensa, the mutant luciferase derived from L. accensa (N50D and 1530R), and the luciferase derived from P. pyralis (SEQ ID NO: 33) was expressed in a HeLa cell, and the luminescence intensity was measured and compared to each other.
Further, since the pF9A vector contains the luciferase gene derived from Renilla reniformis as an internal control, it is possible to obtain the luminescence intensity from the luminescent gene inserted to the multicloning site as a ratio compared to the luminescence intensity emitted by the Renilla luciferase.
Three types of plasmids obtained in such a manner described above were each subjected to gene transfection to a HeLa cell, which has been inoculated in a 24-well plate, by a lipofection method, and 24 hours later, the cells were washed with PBS. To each well of a 24-well plate, 500 μL of 2 mM D-luciferin/CO2 Independent Medium (manufactured by Invitrogen) was added and the luminescence intensity was measured for 90 min by using a Luminescensor (manufactured by ATTO Corporation) under the condition including 25° C. and 1 sec per each well. The luminescence intensity which is obtained at the time point of 90 min after starting the measurement was taken as the luminescence intensity of the wild type luciferase, the mutant luciferase, and P. pyralis luciferase. […] Subsequently, 500 μL of 10 μM coelenterazine/CO2 Independent Medium was added to each well and the luminescence intensity was measured for 30 min by using a Luminescensor under the condition including 25° C. and 1 sec per each well. The luminescence intensity obtained at five minutes after the addition of coelenterazine was taken as luminescence intensity of the Renilla luciferase, which is an internal control. Each of the luminescence intensity from the wild type luciferase, the mutant luciferase, and P. pyralis luciferase was divided by the luminescence intensity of the Renilla luciferase, and the results are illustrated as a graph illustrating the luminescence intensity of each luciferase.

[2] = Measurement of Km value with respect to ATP; type: biochemical; conditions: 0.1 M Tris-HCl pH 8.0, D-luciferin and MgSO4 present
Protocol: Various 8 types of ATP solutions with different concentrations were prepared by adding ATP to 0.1 M Tris-HCl (pH 8.0). These solutions contain ATP at final concentration of 10, 20, 40, 80, 160, 320, 480, and 640 μM. These ATP solutions were aliquoted into a 96-well microplate at a volume of 50 μl each. 0.1 M Tris-HCl (pH 8.0) solution containing each purified luciferase, 1 mM of D-luciferin, and 8 mM of MgSO4 was connected to a standard pump of a luminometer, and the measurement was carried out at the same time as addition of 50 μL of the solution to wells. Measurement was repeated 3 times for each ATP concentration.
The peak intensities of the obtained photon count value were plotted with respect to ATP concentration S, with an initial rate V. The plots were subjected to curve fitting of Michaelis Menten type, thereby giving Km value. The curve fitting was performed by a nonlinear least-squares method, and the search of the parameter was performed by a Newton method.

[3] = Measurement of Km for D-luciferin; type: biochemical; conditions: 0.1 M Tris-HCl pH 8.0, ATP and MgSO4 present
Protocol: Eight types of D-luciferin solution of various concentrations were prepared by adding D-luciferin to 0.1 M Tris-HCl (pH 8.0). These solutions contain D-luciferin at final concentrations of 0.625, 1.25, 2.5, 5, 10, 20, 40, and 80 μM. These D-luciferin solutions were aliquoted into 96-well microplate at a volume of 50 μL each. A solution of 0.1 M Tris-HCl (pH 8.0) containing each of the purified luciferase, 4 mM of ATP, and 8 mM of MgSO4 was connected to the standard pump of the luminometer, and the measurements was carried out at the same time as addition of 50 μL of the solution to the well. A Luminescensor (manufactured by ATTO Corporation) was used for the measurements. Measurements were repeated 3 times for each luciferin concentration.
The peak intensity of the obtained photon count value was plotted with respect to luciferin concentration S, defining the initial rate as V. The plots were subjected to curve fitting of Michaelis Menten type, thereby giving Km values. The curve fitting was performed by a nonlinear least-squares method, and the search of the parameter was performed by a Newton method.

[4] = Stability against degradation: SDS-polyacrylamide gel electrophoresis of lysate of E. coli expressing each luciferase (Example 4); conditions: lysate of E. coli BL21 (DE3) CodonPlus expressing the luciferase
Protocol: Stability against degradation was determined for the wild type luciferase derived from L. accensa in comparison with a known luciferase derived from L. biplagiata.
The above three genes were introduced into an expression vector and expressed in E. coli. The expression was carried out in the same manner as the Example 2 except that BL21 (DE3) CodonPlus (manufactured by Stratagene Corporation) was used as E. coli strain and the cells were cultured appropriately.
The lysate was prepared from the E. coli expressing each gene, and then subjected to SDS-polyacrylamide gel electrophoresis. It was confirmed that, as a band with the biggest size, a single band is present near 70 kDa for all three kinds of protein. […] Meanwhile, in the luciferase derived from L. biplagiata (i.e., left and right lanes), several bands with a size smaller than 70 kDa were identified.

B1: wild type luciferase: wild type luciferase obtained from Lucidina accensa, amino acid sequence SEQ ID NO: 1 (protein, listed as Lucidina accensa)
chain: MEEDKNILRGPAPFYPLEDGTAGEQLHRAMKRYALIPGTIAFTDAHAGVNITYSEYFEMACRLAESLKRYGLGLQHRIVVCSENSLQFFMPVVGALFIGVGVAPANDIYNERELLNSMTISQPTLVFCSRKGLQKILNVQKKLPVIQKIIILDTKEDYMGFQSMYSFVDSQLPVGFNEYDYVPDSFDRDQATALIMNSSGSTGLPKGVELNHTSVCVRFSHCRDPVYGNQIIPDTAILSVIPFHHGFGMFTTLGYLICGFRVVLMYRFEEELFLRSLQDYKIQSALLVPTLFSFFAKSTLIDKYDLSNLHEIASGGAPLAKEVGEAVAKRFNLRGIRQGYGLTETTSAVIITPEGDDKPGAVGKVVPFFSAKVVDLDTGKTLGVNQRGELCLKGPMIMKGYVNNPEATNALIDKDGWLHSGDISYWDEDGHFFIVDRLKSLIKYKGYQVPPAELESILLQHPFIFDAGVAGIPDDEAGELPAAVVVLEEGKTMTEKEIMDYVAGQVTTAKRLRGGVVFVDEVPKGLTGKIDARKIREILVKVKKTKSKL
[1]
  pH environment giving the highest luminescence intensity: 8 pH
HeLa cells; 2 mM D-luciferin, 90 min
  luminescence intensity, mean value (divided by Renilla luciferase intensity): 3.48
HeLa cells
  luminescence intensity in comparison to luciferase derived from L. biplagiata having the literature sequence: ≥ 29 times
  luminescence intensity in comparison to mutant luciferase M249K: ≥ 34.8 times
HeLa cell
  luminescence intensity (divided by luminescence intensity of Renilla luciferase internal control): 7.3
[2]
  Km: 47.6 µM
[3]
  Km: 16 µM
[4]
  stability against protein degradation (bands on stained SDS-PAGE gel): no other band was identified; also recorded: hardly degraded; also recorded: no degradation occurred
